From the domain aggregation screens of Martell et al. (2025)

Assay: soluble fraction after stress (log2 fold change); higher = more stays soluble; pooled small domains, quantitative proteomics
Details: stress: pH 4
How it was run: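 Values are on a log2 scale, where higher means more of the domain stayed soluble after pH 4 stress. They are fold changes in the soluble amount of each domain from pooled custom libraries, measured by high-throughput quantitative proteomics. The fold change is taken to reflect aggregation propensity.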

| Sequence | soluble fraction (log2) |
| --- | --- |
| HMVDYIGRRGVMLSTVSEEKMGNAEVVIDGNSYNIYVKSLDGSTIAYHQEILIINKSKDNNYFLVQIY | -0.548 |
| HMQYYITKIANYDQVSPNLLVRTAEGQYMVKTNADILDTDVTKLTEEEIRKDWGYLFENGFSELV | -0.681 |
| HMTAYEGLPVTLIIDGRVFQQNLQKMNLSVEWLRLELKKFGVTNLKEVLFASLDTEGKLFYQLKT | -0.878 |
| HMSEVTYQETLRLLRRAIDVLPQQSRQIILLGLSGKNNNEVAEMLGISVNTVKTLKKGAYKSLRNSL | -0.281 |
| HMHSKQRDAIFENLRSRKDHPTAEEIYLSLKPAMPAISLATVYRNLAQLENEGLILRLGSGGSARYDGDT | 0.164 |
| HMTVSKLKVINYTIRNGDSLWTISRKFNVTVDKVKEWNGLSDRTLLQPGQKLTLYVDPTIQISH | -0.406 |
| HMDSRVRHAVLTTLLGKRIVDDLVEKGELPGTPLVLATAPGLDRDLEQLIAQRVVTALLTTV | 0.192 |
| HMTDLNQIGERIKGLRDALGYSPEKMASILEQKVDDYLAYEEGTKDISLSVLQRIEKEFDIDLSTLLFGT | -1.17 |
| HMTVGENTYELIKKDIIFGVLPPLKKLKLQELKKIYNASVSTLREILSRLTGDGFVFSEEQKGFYVSPV | -0.33 |
| HMLMYAQDEKEEASNNIPYRLLHMSFTKEQKAELQRAMDVRVPKDIILSYFYPDTPVARMMEIRRQYESA | 0.12 |
| HMQILLASHAELAKGILSAVELIAGTQQNLKAYSAYTEAVDVHFKDQMLQDLNKMDPEDEVIL | 0.0244 |
| HMENKTGEVTVREDSALTLRQGPGTNYEKVGQAYRGDRVDVLEEQNGWYKVKTYDGKEAWASSSYISIV | -0.0485 |
| HMHVYQSLVTDRVVPGGGYRTTEAILSTEAWRNTLLEQAKRELIGVRNKYASLTELAKVWTAIDTVT | -0.249 |
| HMPDRQKDIQNWQQIAETLLNMLDKYVAALETGKTGLAEAYKAIFAETLRRLDDRLDPEQFLP | -1.3 |
| HMANVQLAKNLKTLRKKYNYTQQDVSTFLNITRQAYSHYEQALREPDLNTLVHLSRFYQVTLDELI | -1.6 |
| HMGAIVTGTVVEIRSDVVIVNAGLKSEGVVPIEQFRNEAGELEVSVGDEVKVALDALEDGFGETRLS | -1.97 |
| HMGERVDGVVKFFNGQKGFGFIQREDGGPDAFVHISAVERAGMAGLDEGQRVSFELELDRRGKQAAINLTP | -0.192 |
| HMAKSETAKIKATPYGWLRVRDTPSLNGAEIARVNSGDEYKVLEKETGWIKIKVSDTVEGWVSDAYIELS | 0.16 |
| HMSYPFSEDALKEKIREYLKHNRSINRKVLEAEFHIRKQTALNWLKKLEKSGFLIKEGSRNAPVYFLAE | 0.0835 |
| HMGLLLSQLDKDYQRYIDLADSTFRDNQLAVSRGWYNRALGVKAAEKYPKDQIAEIEKKIAERM | -0.108 |
| HMHGQGTYTSPDGTKYVGDWQDEKMHGQGTYTYPDGMKFVGEFKDNKPWNGTGYDKYGNVKATFSNGVGKS | 0.22 |
| HMNPTSLTFRSNVKDGKVYVDGIFKGSSDLDFDLPKGRHSIRIEKDGYVPFAKTINLIKALVIDFNMEKA | 0.123 |
| HMKITTKNYFKAIAEVGVENLPAALKKSHDLIEERTSKGADWSVYEHDAEVRRVFDLTFEKLFEFIDQ | -1.23 |
| HMGRFAETVEHIVAAQLARRQGIPTMEQFASFFNVSRATFQRRLGEEGETLEQIKQRVRLRLALELLHP | -0.441 |
| HMDFSENEPVTVRVLSILKNNTIRIAVKGAVLQAQTALSQDIREGAFLLMRVHITDNTVVLTPY | -0.193 |

| Sequence | soluble fraction (log2) |
| --- | --- |
| HMVTDTGAIEKVIDEVIAANPKQVQEIADQRAAGHEKPKTLGWLVGQIMKASGGKVNPAAVNEILLKKLG | 0.00199 |
| HMSELSGSQLKAIREEKHIPLEQVASATRIRLSLLEALEMDEYAELGSRTQARGFLKLYADFLGVPFEA | 0.00575 |
| HMNDLIKMPYLVGQLYDDVASNQEYADFQFKITEGNDPDKQPGEIMKQDPAADIMVKKNAEVELLVNG | 0.193 |
| HMKGVENLSDIDIQKALNNARANLSKNKAKLEQAGDDEKKKASALAMIQKWETTKKAIEEEIEARKKKSLN | -0.088 |
| HMEPIAFDNMHNRGIKGTNDWTQYEITLPFSAEAKKIFVAGLLVGKGKAWFDKFEVFLDGKNITDVAQI | -0.0075 |
| HMRAAEPTTDAQRDRRRRIVLTAMTMLQERGYDEIQMRDVAQQAGVALGTLYRYFPSKEQLFAHVLVE | -0.68 |
| HMDAPKPDIGMSTDQIRSSLGQPGSQTRLETGGGRIYELWIYLYPDGKELQIYFDNAKVVKMEALS | -0.419 |
| HMAMPQPVARALHRLGQDISAARRMRRLSQEDLAQRIGTSLSTVRRMEDGYPGTALHTFLRALHML | -0.4 |
| HMPSLAVYPNPVKDILNIATDKPVHSIRIYNVYGSEVLRAADTNRIDVSHLPAGVYMVSADGKVTRIIK | 0.0765 |
| HMIKEVGYEKFMQMTEEEDIGRVEIDQEENQITFTDKDETAIYKTGMVDDPDLTERLYDAGAEFS | -0.591 |
| HMTYVSVSNYIGTNVDKAKGELESQGLVVLLEEQKTEDKSQDGMVLKQTIEGGTKVSSGSRITLIYGRYT | -0.117 |
| HMFIQLSQEEKKVVEGLQQRSKTHLDALALEVGQNISKTAAMLMELEMKGVVRALPGKYYEL | -0.239 |
| HMDSTDSIIHYVRAHRSLEVKNLSFAEARFKKVVELEPNFARGWLGLGEVSILKNNFENASIYLDKALE | -0.505 |
| HMEIVSTEEKIKRAAEQVFLLRGLEGARMQEIADVAGINKAMLHYYFRNKETLFDVILSEKL | -1.14 |
| HMKNIMRQWIELEPDQGKIRSKLYSLDRVVEETTNEVGMIKLLLEIDEKELNNLVSHNDIRLV | -0.625 |
| HMDTETLIDKYQLNASEAAVLRFMDKNRDSLRDLGIRDVARASYVSTATIVNMAKKIGYSGYSELVFAYGS | -0.545 |
| HMRELSDFEKLLFTTTLERKMINLAMLLTRSNKADSKDLIQDSYLKAIENQVQFNGNNIDAWVITILKNTF | -0.361 |
| HMNDVGKVLNQLGERDRMILLLTYWDELPLKEAARILEVSENNAKIILFRARSRFASLWSAGS | -0.794 |
| HMADLIIMSSDATEKQVDKVINKIKNMGFNVNISKGTEKTIIGIIGDTRGISDEVFKIMPGVIEVISILRD | -0.38 |
| HMAGTKRAENIEIQKLTEVLEARLDSVGFFWPDHKAESMIMTLRNMISRLPLTEADVRVFHGIIKSLADK | -0.727 |
| HMNAKNPRALAIQYVFKMQMGNFLHAKTDNQQQEQERIMTLFNEENKNTILPRWGKELLSYINRN | -0.208 |
| HMDNLSESQIKAYSSILSRTHEISDLAENKDYLAFSLWIANILRDPQSVREETAKRVFSALHTNTDFK | -0.793 |
| HMASGLITEEQAKSKALAHAGLSASQVNFIWVKQDWEDGRRVYEVEFYTDDYQEYDYEIDARTGEILSFDY | -1.06 |
| HMRLEEVSVPQRLLAAIAEEREVQIGIVDGRGGTRVLRVEPLALEGGRLRARDVESGEEFTVLIHRVLL | -0.809 |
| HMDDVGERIRKIREEKNLSLDEISKMTGFDVEFLAKIENKERQPQLGTVIKLSKALDSAFGRL | -0.0445 |

| Sequence | soluble fraction (log2) |
| --- | --- |
| HMTNTDYPGKVVPVDPDGKTLKPDGDASYNDKPGTKVKTPTVPGYTAEVPNVEVPVGGGDIKVTYHKKPV | 0.0461 |
| HMGLIAPMPGQIRSVAVSVGDVVKKGQTLLTMEAMKMEIRIQALKDGRVTALHAAQGQTVEGEQILIEVE | -0.652 |
| HMREGIQLGDPVRVIRDPLFGKIGAVSGLPSELRAIPTESEVRVLEVRFPDGTTTVVPRANIEVIEG | -0.229 |
| HMTPDGNATVWSANGYGVRLRTGPGKGYAIIGVYSVGTTVKVLERGPAGGWDHIQVGSRVGYMMNEFLHYY | 0.422 |
| HMPFDRTVQLAGARARQLQALPRYREVLRLLDEGMNPREIGQVLDPPVTRQRASALIQQAKRAQMLGLFED | -0.0649 |
| HMELEFLTEKQKEALILAVNRGYYDVDSEVTLKRLADELGIARSTYGEHLKRAESEALKMVVSDLLRD | -1.03 |
| HMEEDPVIAAQRFLNIFRQLHIFTAAKRKEFDELLLKQPASVKGMFASLPGGSVLQEYVNNLEQNAG | -0.0952 |
| HMINIQYSYNDGKETLHNLSPEVIAEKIMDDPNGYHIVWKQGMVGWVNANDIDDIAKLLRQKK | -0.0166 |
| HMVLSKGAKELLDFIMREGEVTTSKVVQKFGGSAQNASAKLKKLYATGLILGSKAVAESGGLEFVYKA | 0.1 |
| HMNEFGIPDKKLQDIETRVNSMSLEQLNAARSMLIDEQEALNSSTGSASSGRLKEIAAELSTIQKALIAIA | -0.0513 |
| HMGMYAEERHQAIASLARKHGRVSVAELAERFNVTSETIRRDLDSLARRGLLTRVHGGAVPVE | ≥ 0.43 |
| HMGEVVSAPMPGTILSIKVSQGQTVKRGQVLLILEAMKMENEIVAPRDGVVVQISTTQGASVETGAPLVVL | -0.118 |
| HMNPNPYIVLGVDKSMPFGEIKKVYQRKRREFHPDSLVAKGLPDELLQKAQDKFIAIQEAYKSIEKNQV | 0.0331 |
| HMESAVDVFRSILKEKGVTEEEVRQVVAARGKYTLETPIDDYPNEFLYGYVIRYWDQIFDIIQQSREAK | -1.57 |
| HMKNNAIAPDQVVSLLKNEVNYNDDGRIEILDNNKNIRYNSKGELLTIEERVNEFLDANPHFRK | -0.0472 |
| HMTQSQSLQSQFEQLEKAYQDNLHLLSPKQKLIIQEAGKIIQQLPQQAQIQAKVNLYQSLSAEISKESQQ | -0.107 |
| HMALDLPVKRVKGKEYYYYKVKKGESLYGISKHLGLPLDSIVKSNPSVADGVRKGDMLLFPLEEYT | 0.115 |
| HMQQKNWIVRDGDGKIYGPFTTEQVLVQIDRGYFVGGEEVALYPGGRWIAISGAPEFYDRLLDALAMEG | -1.29 |
| HMAEPAEDLLSLEGMDKGLAYQLASNGVVTREDLAELATDDLLEIREMDAEQAAALIMKAREHWFEAEQQ | -1.94 |
| HMGEWHQMLRSWGETELKNGRQNILDEAVPAFERAMIETALAHTSGRKKDAALLLGWGRNTLTRKLQEHSI | -0.349 |
| HMRMRPNERQKRIIELLSFRRHETIGNFANEFGVSRDTIKRDIITLQEEYPIISERGYEGGISLPDGYYI | -0.0594 |
| HMKHYIDFIAEQLKTLTAIPSPSGYTKNATDYLMKLLQDMGYEPKLSRKGNVFVTLGGDGEPLVLAAHVD | -0.112 |
| HMEFDTEFVLRQAMHAFMQYGYAKTSMQKLKEATHLHPGSIYAAYGNKKGLFLAATEQYQKDR | -0.101 |
| HMSQDEVVADMKADLGPDADNIIRSNIQWADGLVRKGILTESEREELDVMGGTPEAQRILVKLRTMQG | -0.539 |
| HMGLSNYEFNSISQTVKEKLEQGPLTLKALVDETAHLFAEDKVVSVVQWLIDQRDLAYDDHGLLQWKG | -0.871 |
